Results reported in paper PMC10303687.

Target: MDM2_(D. rerio) SWIB domain (zebra fish (Danio rerio))
Experiment: stopped-flow fluorescence kinetics; 10°C, 20 mM sodium phosphate pH 7.4, 150 mM NaCl, 1 mM TCEP; Trp23 emission; MDM2 constant at 0.5–2 μM, p53TAD varied 1–10 μM for k on; k off from displacement of the 1 μM:1 μM complex by 10–20 μM dansylated human p53TAD peptide; K D = k off/k on

Substance	Kd [nM]	koff [s⁻¹]	kon [M⁻¹ s⁻¹]
p53TAD_(D. rerio)^14–27 (peptide)	1900	31	1.59e+07
p53TAD_(D. rerio)^N26L (peptide)	340	5.2	1.55e+07
p73TAD_(D. rerio) (peptide)	120	3.7	3.2e+07
